Reference: patent US20220372138A1 (IOMX THERAPEUTICS, published 2022)
Changes are numbered by the printed parent chain. Read-outs that look alike come from different tables or passages of the source.

T1: extracellular domain (ECD) of human IGSF11 (VSIG3), recombinant (human, UniProt Q5DX21 23-241)
T1 construct: biotinylated where captured on streptavidin; tags of the reagent not always stated; also called IGSF11 (ECD domain); ECD-IGSF11
T1 sequence: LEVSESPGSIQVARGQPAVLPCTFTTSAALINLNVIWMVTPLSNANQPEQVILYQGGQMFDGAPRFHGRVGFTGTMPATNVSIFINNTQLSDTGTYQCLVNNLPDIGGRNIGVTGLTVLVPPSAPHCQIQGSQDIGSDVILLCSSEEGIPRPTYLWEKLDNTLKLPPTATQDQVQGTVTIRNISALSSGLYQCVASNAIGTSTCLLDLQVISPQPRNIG

T2: human IGSF11 (VSIG3) expressed on cells (human, UniProt Q5DX21 23-431)
T2 sequence: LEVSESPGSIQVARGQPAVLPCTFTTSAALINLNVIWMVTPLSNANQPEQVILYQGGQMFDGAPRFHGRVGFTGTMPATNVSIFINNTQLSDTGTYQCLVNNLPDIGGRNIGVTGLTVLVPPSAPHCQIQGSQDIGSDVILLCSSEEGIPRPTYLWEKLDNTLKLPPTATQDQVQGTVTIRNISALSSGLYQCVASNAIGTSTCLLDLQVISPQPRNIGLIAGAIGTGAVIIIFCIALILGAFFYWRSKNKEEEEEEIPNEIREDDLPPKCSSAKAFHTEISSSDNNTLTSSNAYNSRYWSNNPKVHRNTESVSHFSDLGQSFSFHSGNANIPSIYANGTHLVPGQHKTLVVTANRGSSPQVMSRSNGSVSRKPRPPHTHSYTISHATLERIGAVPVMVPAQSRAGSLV

T3: human IGSF11 (VSIG3) ECD, His-tagged (human, UniProt Q5DX21 23-241)
T3 construct: in part bought (SinoBiological 13094-H08H); also called HIS-IGSF11; IGSF11-HIS; not shown: His tag
T3 sequence: T1 sequence

T4: full-length ECD of human IGSF11 fused to murine Fc (human, UniProt Q5DX21 23-241)
T4 construct: also called Fc-fusion IGSF11 ECD; not shown: murine Fc
T4 sequence: T1 sequence

T5: IgC2 domain of human IGSF11 fused to murine IgG2a Fc (human, UniProt Q5DX21 137-241)
T5 construct: not shown: murine IgG2a Fc-region
T5 sequence: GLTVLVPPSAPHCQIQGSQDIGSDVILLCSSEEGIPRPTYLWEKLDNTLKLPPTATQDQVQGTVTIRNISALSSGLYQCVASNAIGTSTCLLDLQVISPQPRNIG

T6: IgV domain of human IGSF11 fused to murine IgG2a Fc (human, UniProt Q5DX21 23-143)
T6 construct: not shown: murine IgG2a Fc-region
T6 sequence: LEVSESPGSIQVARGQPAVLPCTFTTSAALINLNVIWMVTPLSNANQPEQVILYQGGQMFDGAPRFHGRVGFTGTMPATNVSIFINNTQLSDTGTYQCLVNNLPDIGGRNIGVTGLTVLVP

T7: murine IGSF11 expressed on cells (mouse, UniProt P0C673 23-428)
T7 construct: MC38-IGSF11, CT26-IGSF11, MC38-wt (naturally expresses murine IGSF11)
T7 sequence: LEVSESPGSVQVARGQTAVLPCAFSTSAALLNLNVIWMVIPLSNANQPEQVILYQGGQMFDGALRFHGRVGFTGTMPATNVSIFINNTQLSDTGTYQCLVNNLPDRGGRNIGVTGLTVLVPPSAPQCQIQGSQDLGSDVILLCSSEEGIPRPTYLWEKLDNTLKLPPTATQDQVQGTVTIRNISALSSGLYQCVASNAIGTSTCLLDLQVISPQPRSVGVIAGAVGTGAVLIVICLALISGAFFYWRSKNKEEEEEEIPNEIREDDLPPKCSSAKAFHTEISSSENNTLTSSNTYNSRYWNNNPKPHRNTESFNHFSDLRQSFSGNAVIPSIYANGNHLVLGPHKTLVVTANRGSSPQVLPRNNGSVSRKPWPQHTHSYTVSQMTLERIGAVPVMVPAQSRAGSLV

B1: B-002 (chain-swapped IgG1) (antibody, V domains shown)
VH: EVQLVESGGGLIQPGGSLRLSCAASGFTVSSNYMSWVRQAPGKGLEWVSVIYSGGSTYYADSVKGRFTISRDNSKNTLYLQMNSLRAEDTAVYYCARGNPYYYGDLQVNFDYWGQGTLVTVSS
VL: QAVVTQEPSLTVSPGGTVTLTCASSTGAVTSGYYPNWFQQKPGQAPRALIYSTSNKHSWTPARFSGSLLGGKAALTLSGVQPEDEAEYYCLLYYGGAWVFGGGTKLTVL
notes: human IgG1 format; also called B2
B2: A-006 (IgG1 format) (antibody, V domains shown)
VH: B1 VH
VL: B1 VL with A48P, E83D, A97D
notes: human IgG1 format; also called A-006-like ABP
B3: B-001 (chain-swapped IgG1) (antibody, V domains shown)
VH: B1 VH with V5L, A24V
VL: B1 VL with G32A, E87D
notes: human IgG1 format; also called B1
B4: D-223 (IgG format) (antibody, V domains shown)
VH: EVQLVESGGGLVKPGGSLRLSCAASGFTFSHAWISWVRQAPGKGLEWVGQIKGGPGSGGTSYAEPVKGRFTISRDDSKNTLYLQMNSLKTEDTAVYYCARLGIYSGFDYWGQGTLVTVSS
VL: SYELTQPPSVSVSPGQTASITCSGDKLGDKYASWYQQKPGQSPVLVIYQDSKRPSGIPERFSGSNSGNTATLTISGTQAEDEADYYCHSYLHLPPTVVFGGGTKLTVL
B5: A-024 (IgG1 format) (antibody, V domains shown)
VH: QMQLVQSGAEVKKPGSSVKVSCKASGGTFSSYAISWVRQAPGQGLEWMGWISAYNGNTNYAQKLQGRVTMTTDTSTSTAYMELRSLRSDDTAVYYCASLGSYGYTGAFDIWGQGTMATVSS
VL: QSALTQPASVSGSPGQSITISCTGTSSDVGGYNYVSWYQQHPGKAPKLMIYEVSNRPSGVSNRFSGSKSGNTASLTISGLQAEDEADYYCSSYTSSSTLVVFGGGTKLTVL
notes: also called A-024-like ABP
B6: D-116 (IgG format) (antibody, V domains shown)
VH: EVQLLESGGGLVQPGGSLRLSCAASGFTFKHSAISWVRQAPGKGLEWVSAISYGGGSQYYADSVKGRFTISRDNSKNTLYLQMNSLRAEDTAVYYCARDSRDAYGVAFDLWGQGTMVTVSS
VL: ASVLTQPPSVSAAPGQKVTISCSGSSSNIGNNYVSWYQQLPGTAPKLLIYDNNKRPSGIPDRFSGSKSGTSATLGITGLQAEDEADYYCQSYGHRSFVFGGGTKLTVL

Key:
[1] = target: T1, extracellular domain (ECD) of human …; experiment: SPR
[2] = target: T2, human IGSF11 (VSIG3) expressed on cells; experiment: IgG1 FACS HEK-OE
[3] = target: T2, human IGSF11 (VSIG3) expressed on cells; experiment: IgG1 FACS DMS 273
[4] = target: T2, human IGSF11 (VSIG3) expressed on cells; experiment: FACS, DMS 273 cells with scrambled control siRNA (SC)
[5] = target: T2, human IGSF11 (VSIG3) expressed on cells; experiment: FACS, M579-A2-luc cells with scrambled control siRNA (SC)
[6] = target: T2, human IGSF11 (VSIG3) expressed on cells; experiment: FACS, DMS 273 cells with IGSF11 siRNA (KD, knock-down control)
[7] = target: T2, human IGSF11 (VSIG3) expressed on cells; experiment: FACS, M579-A2-luc cells with IGSF11 siRNA (KD, knock-down control)
[8] = target: T3, human IGSF11 (VSIG3) ECD, His-tagged; experiment: ELISA: IGSF11-HIS coated, IgG1 dilution series, anti-human antibody-HRP, TMB
[9] = target: T3, human IGSF11 (VSIG3) ECD, His-tagged; experiment: blocking ELISA: VSIR-Fc immobilised, IgG dilution series pre-incubated with 200 nM IGSF11 ECD-His, bound IGSF11 detected with anti-His-HRP
[10] = target: T1, extracellular domain (ECD) of human …; experiment: BLI
[11] = target: T1, extracellular domain (ECD) of human …; experiment: SPR; remark: listed apart in the source
[12] = target: T4, full-length ECD of human IGSF11 fused …; experiment: IgG ELISA
[13] = target: T5, IgC2 domain of human IGSF11 fused to …; experiment: IgG ELISA
[14] = target: T3, human IGSF11 (VSIG3) ECD, His-tagged; experiment: IgG1 ELISA EC50 <0.02 nM
[15] = target: T1, extracellular domain (ECD) of human …; experiment: BLI apparent affinity, IgG on AHC sensor, IGSF11 ECD 100 nM
Source text: Briefly, various APBs were loaded on an optical biosensor via a commercially available Capture System (AHC sensors, ForteBio).

[16] = target: T4, full-length ECD of human IGSF11 fused …; experiment: ELISA: Fc-fusion IGSF11 ECD coated, IgG dilution series, anti-human IgG-HRP
Procedure: (§1) Binding of IgG antibodies to each of the full-length ECD of IGSF11, to the IgV domain of IGSF11 and to the IgC2 domain of IGSF11, was tested in the ELISA assay as follows: briefly, recombinant domains of Fc-fusion IGSF11 proteins were coated at 2 ug/mL on a 384-well Maxisorp plate. The surface was blocked with 2% (w/v) skim milk powder in PBST. […] After removing all unbound antibodies by 3 wash cycles with PBST, bound IgG ABPs were detected with a goat anti-human IgG antibody conjugated with horseradish peroxidase. After three wash cycles with PBST the ELISA was developed with TMB substrate.

[17] = target: T5, IgC2 domain of human IGSF11 fused to …; experiment: ELISA: IgC2 domain-mFc fusion coated, IgG dilution series, anti-human IgG-HRP
Procedure: as §1

[18] = target: T6, IgV domain of human IGSF11 fused to …; experiment: BLI: IgV domain-mFc captured on the sensor, IgG1 in solution, concentrations not given [Cont.) D]
[19] = target: T3, human IGSF11 (VSIG3) ECD, His-tagged; experiment: blocking ELISA: VSIR-Fc immobilised, IgG dilution series pre-incubated with 200 nM IGSF11 ECD-His, bound IGSF11 detected with anti-His-HRP; remark: listed apart in the source
[20] = target: T3, human IGSF11 (VSIG3) ECD, His-tagged; experiment: as above; remark: listed apart in the source
[21] = target: T2, human IGSF11 (VSIG3) expressed on cells; experiment: IgG FACS Colo741
Source text: (§2) Unbound antibodies were removed by washing the cells three time with FACS buffer. Bound antibodies were detected with a mouse anti-human IgG antibody conjugated with AlexaFluor647.

[22] = target: T7, murine IGSF11 expressed on cells; experiment: IgG FACS MC38-wt
Source text: as §2

[23] = target: T6, IgV domain of human IGSF11 fused to …; experiment: IgG ELISA
[24] = target: T3, human IGSF11 (VSIG3) ECD, His-tagged; experiment: IgG1 ELISA EC50 0.02-0.05 nM
[25] = target: T4, full-length ECD of human IGSF11 fused …; experiment: ELISA: Fc-fusion IGSF11 ECD coated, IgG dilution series, anti-human IgG-HRP; remark: listed apart in the source
Procedure: as §1

[26] = target: T5, IgC2 domain of human IGSF11 fused to …; experiment: BLI: IgC2 domain-mFc captured on the sensor, IgG1 in solution, concentrations not given [Cont.) D]

Binder	Kd [1]	EC50 [2]	EC50 [3]	% binding (FACS heat-map) [4]	% binding (FACS heat-map) [5]	% binding (FACS heat-map) [6]	% binding (FACS heat-map) [7]	EC50 (read off the curve) [8]	Kd [11]	EC50 [12]	EC50 [21]	EC50 [22]	further results
B1	100 to 250 nM	10 to 50 nM	> 50 nM	80.1%	70.7%	8.68%	2.77%	~0.01 nM	–	–	–	–	IC50 (read off the curve) [9]: 4 to 5 nM
B2	–	10 to 50 nM	> 50 nM	81.1%	75.3%	5.72%	2.59%	~0.01 nM	250 to 500 nM	< 1 nM	–	–	Kd [10]: 1 to 10 nM; EC50 [13]: < 1 nM; EC50 [14]: < 0.02 nM; Kd [15]: < 15 nM; EC50 (read off the curve) [16]: ~0.5 nM; EC50 (read off the curve) [17]: ~0.4 nM; binding result [18]: no binding; IC50 (read off the curve) [19]: ~4 nM
B3	250 to 500 nM	10 to 50 nM	–	–	–	–	–	–	–	–	–	–	IC50 (read off the curve) [20]: ~2 nM
B4	–	–	–	–	–	–	–	–	–	–	< 0.5 nM	< 0.5 nM	–
B5	–	–	< 10 nM	–	–	–	–	–	> 500 nM	< 1 nM	–	–	EC50 [23]: < 1 nM; EC50 [24]: 0.02 to 0.05 nM; EC50 (read off the curve) [25]: ~0.4 nM; binding result [26]: no binding
B6	–	–	–	–	–	–	–	–	–	–	< 0.5 nM	< 0.1 nM	–
